According to the supplement of paper PMC10567573:

B1: RHOBTB3 (parent)
chain: QLQSMPSRELASMNLDIVDLLKKA
B2: KRT71 (parent)
chain: ELRNVQDVVEDYKKRYEEEINKRT

Variants of: B1
Assay: protein stability index of a GFP-peptide fusion (GPS, HEK-293T) (PSI 1-6); higher = more stable
Conditions: c terminus: a fixed tail appended
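Note: lentivirally expressed fusions sorted by FACS into six bins by GFP to DsRed ratio, PSI derived from sequencing read proportions per bin multiplied by bin number.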

Protein stability index: each site, then its substitutions
Q3: S 3.44; R 4.02; N 2.56; G 3.85; F 2.62; T 3.38; P 4.39; Y 2.75; W 2.48; V 2.98; D 3.5; L 2.68; E 3.7; I 3.18; M 3.35
Q1: A 3.43; T 3.66; K 4.12; S 2.75; L 2.55; E 3.01; G 3.51; P 4.72; I 2.71; Y 2.98; V 2.98; N 3.65; F 2.95; R 3.72; M 3.38; H 2.92; C 2.86; W 2.62
S4: L 3.23; D 3.82; G 3.82; K 3.08; C 3.54; T 3.64; M 3.28; F 3.19; E 4.83; A 3; H 3.24; V 3.11; R 3.06; P 3.54; N 2.78; I 3.78
L2: I 3.16; V 2.77; N 3.71; Q 3.78; R 3.47; A 3.21; E 4.29; W 3.31; F 3.04; M 3.83; K 3.18; Y 4.34; C 4.45; D 4; T 3.55; P 4.72

Variants of: B2
Assay: as above
Conditions: c terminus: a fixed tail appended

Protein stability index of substitutions, site by site:
I20: P 3.71; Q 3.74; A 4.88; L 4.32; N 4; C 4.07; M 4.12; V 4.2; Y 3.15; G 4.05; W 3.2; S 4.25; H 4.07; R 3.22; E 3.6; T 3.65
R23: A 3.34; N 4.11; G 4.1; S 4.27; I 3.72; Q 3.83; V 3.93; M 3.03; L 3.63; Y 3.98; T 4.69; F 3.71; E 4.63; K 4.2; P 3.56; C 3.84; H 4.09
E18: Y 3.85
T24: Y 3.18; F 2.85; G 3.94; D 4.64; V 3.69; L 3.58; A 3.08; W 3.62; E 4.57; S 3.4; N 3.14; P 4.39; R 4.41; Q 4.56; K 4.43; M 3.54; I 4.02
K22: Q 4.35; L 3.28; T 4.15; M 3.92; E 3.43; W 3.9; G 3.27; H 3.68; F 4.47; A 3.74; N 4.11; D 3.57; P 3.47; C 4.19; I 3.28; R 4.21; Y 3.43
N21: A 4.15; H 4.26; K 4.54; Q 3.51; V 4.3; D 3.8; I 1.94; C 3.73; S 4.27; T 2.89; R 3.92; G 3.77; M 2.79; Y 3.65; F 3.55; L 3.83
E19: Q 2.54; H 3.73; K 3.21; T 4.16; C 3.9; G 3.65; P 4.28; A 3.94; R 4.11; W 2.92; V 3.48; M 2.73; N 2.71; F 3.36; S 3.69; Y 2.88; I 3.39; D 3.24
